We go through twelve molecules from patent US20070065444A1 (Amgen, published 2007).

Like-named read-outs stand apart in the source and are kept apart here.

The target of experiment [1] is T1, cynomologus ALK-1/Fc fusion protein (cynomolgus monkey, UniProt Q5RAN0 22-118 (Pongo abelii entry)).
T1 construct: also called cALK-1/Fc; not shown: Fc part and any linker not described
T1 chain: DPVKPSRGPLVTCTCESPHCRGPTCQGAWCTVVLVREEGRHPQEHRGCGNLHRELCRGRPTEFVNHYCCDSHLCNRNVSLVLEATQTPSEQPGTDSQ
Put plainly: SPR (BIAcore 3000), cALK-1/Fc immobilized, antibody as analyte.

For experiment [2], the target named is T2, recombinant human ALK-1/Fc fusion protein (human, UniProt P37023 22-118).
T2 construct: range 22-118; Disulfide-linked homodimer; also called hALK-1/Fc; recombinant human ALK-1/Fc chimera; not shown: Fc region of human IgG
As to the kind of experiment: SPR (BIAcore 3000), hALK-1/Fc immobilized, antibody as analyte. On the technique in general: Surface plasmon resonance follows binding to a sensor surface in real time, without labels.

In experiment [3] the target is T3, human ALK-1 (full-length, cell surface) (human, UniProt P37023 22-503). As to the kind of experiment: cell-based or functional assay.
Experiment [4] deals with T3, human ALK-1 (full-length, cell surface). Put plainly: FACS on 293 cells overexpressing human ALK-1.
In experiment [5] the target is T4, Cynomolgus monkey ALK-1 (full-length, cell surface) (cynomolgus monkey, UniProt P37023 22-503 (human entry)).
T4 construct: also called Cyno ALK-1
T4 chain: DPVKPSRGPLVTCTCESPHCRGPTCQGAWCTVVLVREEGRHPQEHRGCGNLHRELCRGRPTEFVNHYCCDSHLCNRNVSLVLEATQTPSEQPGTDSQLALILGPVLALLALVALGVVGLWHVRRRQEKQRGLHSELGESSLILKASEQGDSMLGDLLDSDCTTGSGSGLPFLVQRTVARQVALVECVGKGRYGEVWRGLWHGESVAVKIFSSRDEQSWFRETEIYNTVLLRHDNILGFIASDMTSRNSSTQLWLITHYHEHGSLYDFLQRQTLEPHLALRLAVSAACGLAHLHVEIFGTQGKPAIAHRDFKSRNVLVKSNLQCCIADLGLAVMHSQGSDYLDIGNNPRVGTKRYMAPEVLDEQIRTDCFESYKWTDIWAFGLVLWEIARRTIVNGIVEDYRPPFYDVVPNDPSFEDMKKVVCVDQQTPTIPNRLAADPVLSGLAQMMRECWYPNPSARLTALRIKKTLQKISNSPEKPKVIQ
Put plainly: FACS on 293 cells overexpressing Cyno ALK-1.

For the next experiment, the target named is T5, monomeric ALK-ECD (human, UniProt P37023 22-118).
T5 construct: also called ALK-1 ECD His-Tag protein; Human ALK-1 ECD His-Tag Protein
As to the kind of experiment: SPR (BIAcore 3000), antibody immobilized, monomeric ALK-ECD as analyte (Example 8, different ECD preparation).

For experiment [6], the target named is T3, human ALK-1 (full-length, cell surface). Put plainly: FACS, 293 stable cells overexpressing full-length human ALK-1, anti-human kappa R-PE secondary, geometric mean against mAb concentration. Background: A flow cytometer gives signals particle by particle.
In experiment [7] the target is T4, Cynomolgus monkey ALK-1 (full-length, …). Put plainly: FACS, 293 stable cells overexpressing full-length Cyno ALK-1, anti-human kappa R-PE secondary, geometric mean against mAb concentration.
Experiment [8] has the same target. Put plainly: FACS on 293 cells overexpressing Cyno ALK-1.
Experiment [9] has as its target T2, recombinant human ALK-1/Fc fusion …. As to the kind of experiment: SPR (BIAcore 3000) cross-competition on immobilized human ALK-1/Fc chimera.

B1: 4.62.1 (antibody, V domains shown)
VH: QVQLQESGPGLVKPSQTLSLTCTVSGGSISSGDYYWNWIRQHPGKGLEWIGYIYYSGSTYYNPSLKSRVTISVDTSKNQFSLKLSSVTAADTAVYYCARESTDGMDVWGQGTTVTVSS
VL: not shown
notes: Human IgG2 kappa antibody from a hybridoma
For B1, the results for the Avidity in experiment [1] and in experiment [2] were 19 pM and 9.6 pM, respectively.

B2: 4.72.1 (antibody, human IgG2, V domains shown)
VH: QVQLQESGPGLVKPSQTLSLTCTVSGGSISSGEYYWSWIRQHPGKGLEWIGYIFYSGSTYYNPSLKSRVTISLDTSKNQFSLKLSSVTAADTAVYYCARESTDGMDVWGQGTTVTVSS
VL: EIVLTQSPGTLSLSPGERATLSCRASQSVSSSYLAWYQRKPGQAPRLLIYGVSSRATGIPDRFSGSGSGTDFTLTISRLEPEDFAVYYCQQYGSSMITFGQGTRLEIK
notes: as for B1
On to B2, for which, in experiment [3], the “ID1 Taqman IC50” value is 21 nM and the “pSmad1 Western IC50 nM” value was 35 nM. Besides, in experiment [4], the Kd (in general, a measure of binding affinity in units of concentration) is 6.4 nM. Besides, in [5], binding was put at a Kd of 3.8 nM. In addition, in the experiment with monomeric ALK-ECD, binding was characterised by a dissociation constant (Kd) of 0.8 nM, the off-rate (koff) (usually the first-order rate constant of dissociation) stood at 2.5e-05 s⁻¹ and the kon (commonly a measure of how fast the partners come together) was 32000 M⁻¹ s⁻¹.

B3: 4.24.1 (antibody, human IgG2, V domains shown)
VH: QVQLQESGPGLVKPSQTLSLTCTVSGGSISSNDYYWNWIRQHPGKGLEWIGYIYYSGSTYYNPSLKSRVTISVDTSKNQFSLKLSSVTAADTAVYYCARESTDGMDVWGQGTTVTVSS
VL: ENVLTQSPGTLSLSPGERATLSCRASQSVSSNYLAWYQQKPGQAPRLLIYGASSGATGIPDRFSGSGSGTDFTLTISRLEPEDFAVYYCQHYGSSPITFGQGTRLEIK
notes: as for B1
Regarding B3, the “ID1 Taqman IC50” value in experiment [3] was determined as 100 nM. In [3], the “pSmad1 Western IC50 nM” value came to 82 nM. Further, the Kd in [4] was 7.6 nM; in experiment [5], 3.1 nM.

B4: 1.162.1 (antibody, human IgG2, V domains shown)
VH: QVQLQESGPGLVKPSQTLSLICTVSGGSISSGEYYWSWIRQHPGKGLEWIGYIYYSGSTYYNPSLKSRLTISVDTSKNQFSLKLSSVTAADTAVYYCAREGIGAFDIWGQGTMVTVSS
VL: EIVLTQSPGTLSLSPGERATLSCRASQSVSSSYLAWYQQKPGQAPRLLIYGASSRATGIPDRFSGSGSGTDFTLTIIRLDPEDFAVYYCQRYGSSPITFGQGTRLEIK
notes: as for B1
On to B4, for which, in experiment [1], the Avidity amounted to 62 pM. Further, in experiment [3], the “ID1 Taqman IC50” value was 75 nM and the “pSmad1 Western IC50 nM” value was determined as 15 nM. The molecule further had a Kd in experiment [4] of 5.6 nM. In experiment [5], this molecule showed a Kd of 3 nM. In addition, in [2], the Avidity turned out to be 18 pM and the koff was determined as 1.1e-05 s⁻¹.

B5: 1.13.1 (antibody, human IgG2, V domains shown)
VH: QVHLQESGPGLVKPSETLSLTCTVSGGSVSSGDYYWNWIRQPPGKGLEWIGYIYYSGSTNYNPSLKSRITISIDTSKNQFSLKLNSVTAADTALYYCARESVAAFDYWGQGTLVTVSS
VL: EIVLTQSPGTLSLSPGERATLSCRASQSISSRYLAWYQQEPGQAPRLLIYGASSRATGIPDRFSGSGSGTDFTLTISRLEPEDFAVYYCQHYGSSPITFGQGTRLEIK
Consider B5, for which, in [3], the “ID1 Taqman IC50” value was 100 nM and the “pSmad1 Western IC50 nM” value stood at 87 nM.

B6: 4.58.1 (antibody, human IgG2, V domains shown)
VH: QVQLQESGPGLVKPSQTLSLTCTVSGGSISSGDYYWNWIRQHPGKGLEWIGYIYYSGSTYYNPSLKSRVTISVATSKNQFSLKLSSVTAADTAVYYCAREATEGFDYWGQGTLVTVSS
VL: EIVLTQSPGTLSLSPGERATLSCRASQSVSTTYLAWYQQKPGQAPRLLIYGASSRATGIPDRFSGSGSGTDFTLTISRLEPEDFALYYCQHYGTSSITFGQGTRLEIK
notes: as for B1
As for B6, in experiment [3], the “ID1 Taqman IC50” value was determined as 14 nM and the “pSmad1 Western IC50 nM” value came out at 15 nM. The molecule also displayed a Kd in experiment [4] of 14 nM.

B7: 1.12.1(rWT) (antibody, human IgG2, kappa)
heavy: QVQLQESGPGLVKPSQTLSLTCTVSGGSMSSGEYYWNWIRQHPGKGLEWIGYIYYSGSTYYNPSLKSRVTISVDTSKNQFSLKLSSVTAADTAVYYCARESVAGFDYWGQGTLVTVSSASTKGPSVFPLAPCSRSTSESTAALGCLVKDYFPEPVTVSWNSGALTSGVHTFPAVLQSSGLYSLSSVVTVPSSNFGTQTYTCNVDHKPSNTKVDKTVERKCCVECPPCPAPPVAGPSVFLFPPKPKDTLMISRTPEVTCVVVDVSHEDPEVQFNWYVDGVEVHNAKTKPREEQFNSTFRVVSVLTVVHQDWLNGKEYKCKVSNKGLPAPIEKTISKTKGQPREPQVYTLPPSREEMTKNQVSLTCLVKGFYPSDIAVEWESNGQPENNYKTTPPMLDSDGSFFLYSKLTVDKSRWQQGNVFSCSVMHEALHNHYTQKSLSLSPGK
light: not shown
notes: mAb 1.12.1 expressed as a recombinant mAb; also called recombinant wild-type mAb 1.12.1
With B7, the “EC50 (read off the curve)” value in [6] and in experiment [7] was approximately 5 nM in each case.

B8: 1.12.1 (antibody, human IgG2, kappa)
heavy: QVQLQESGPGLVKPSQTLSLTCTVSGGSMSSGEYYWNWIRQHPGKGLEWIGYIYYSGSTYYNPSLKSRVTISVDTSKNQFSLKLSSVTAADTAVYYCARESVAGFDYWGQGTLVTVSSASTKGPSVFPLAPCSRSTSESTAALGCLVKDYFPEPVTVSWNSGALTSGVHTFPAVLQSSGLYSLSSVVTVPSSNFGTQTYTCNVDHKPSNTKVDKTVERKCCVECPPCPAPPVAGPSVFLFPPKPKDTLMISRTPEVTCVVVDVSHEDPEVQFNWYVDGVEVHNAKTKPREEQFNSTFRVVSVLTVVHQDWLNGKEYKCKVSNKGLPAPIEKTISKTKGQPREPQVYTLPPSREEMTKNQVSLTCLVKGFYPSDIAVEWESNGQPENNYKTTPPMLDSDGSFFLYSKLTVDKSRWQQGNVFSCSVMHEALHNHYTQKSLSLSPGK
light: not shown
notes: Hybridoma-derived human IgG2 kappa antibody; also called mAb 1.12.1 isolated from the hybridoma; hybridoma LN 15916, ATCC PTA-6808
B8: the dissociation constant (Kd) in [5] and in experiment [8] was 2 nM each time.

B9: 1.12.1(D19A) (antibody, human IgG2, kappa)
heavy: QVQLQESGPGLVKPSQTLSLTCTVSGGSMSSGEYYWNWIRQHPGKGLEWIGYIYYSGSTYYNPSLKSRVTISVDTSKNQFSLKLSSVTAADTAVYYCARESVAGFDYWGQGTLVTVSSASTKGPSVFPLAPCSRSTSESTAALGCLVKDYFPEPVTVSWNSGALTSGVHTFPAVLQSSGLYSLSSVVTVPSSNFGTQTYTCNVDHKPSNTKVDKTVERKCCVECPPCPAPPVAGPSVFLFPPKPKDTLMISRTPEVTCVVVDVSHEDPEVQFNWYVDGVEVHNAKTKPREEQFNSTFRVVSVLTVVHQDWLNGKEYKCKVSNKGLPAPIEKTISKTKGQPREPQVYTLPPSREEMTKNQVSLTCLVKGFYPSDIAVEWESNGQPENNYKTTPPMLDSDGSFFLYSKLTVDKSRWQQGNVFSCSVMHEALHNHYTQKSLSLSPGK
light: not shown
notes: Recombinant 1.12.1 with the single light-chain mutation D19A
Take B9: the 50% effective concentration (EC50 (read off the curve)) (usually the midpoint of the concentration-response curve) in experiment [6] is approximately 5 nM; in experiment [7], approximately 3 nM. Moreover, the Kd in [8] was determined as 3.8 nM.

B10: 1.11.1 (antibody, human IgG2, V domains shown)
VH: QVQLVESGGGVVQPGRSLRLSCAASGFTFSSHGMYWVRQAPGKGLEWVAAIWYDGSNKYYADSVKGRFTISRDNSKNTLYLQMNSLRAEDTAVYYCARDQEQWPDVFDIWGQGTMVTVSS
VL: DIQMTQSPSSLSASVGDRVTITCRASQGIRNYLAWFQQKPGKAPKSLIYGASSLQSGVPSKFSGSGSGTDFTLTISSLQPEDFATYYCQQYNSYPLTFGGGTKVEIK
notes: as for B1
Regarding B10, the binding result in experiment [9] was “binds”.

B11: 4.38.1 (antibody, human IgG2, V domains shown)
VH: QVQLQESGPGLVKPSQTLSLTCTVSGGSISSGDYYWSWIRQHPGKGLEWIGYIYYSGSTYYNPSLKSRVTISIDTSKNQFSLKLSSVTAADTAVYYCARERDYGGGFDYWGQGTLVTVSS
VL: not shown
notes: as for B1
In turn, B11 displayed an Avidity in experiment [1] of 150 pM. In experiment [3], the “ID1 Taqman IC50” value worked out at 87 nM and the “pSmad1 Western IC50 nM” value was found to be 52 nM. This molecule also registered a dissociation constant Kd in experiment [4] of 9.3 nM. Also, the Avidity in experiment [2] amounted to 100 pM.

B12: 1.183.1 (antibody, human IgG2, V domains shown)
VH: QVQLQESGPGLVKPSETLSLTCTVSGGSISSYYWSWIRQPPGKGLEWIGYIYYSGSTNYNPSLKSRVTISVDTSKNQFSLKLSSVTAADTAVYYCAREDDSSGCPYFDYWGQGTLVTASS
VL: EIVMTQSPATLSVSPGERATLSCRASQSVSSNLAWYQQKPGQAPRVLIYGASTRATGIPVRFSGSGSGTEFTLTISSLQSEDFAVYYCQQYNNWPFTFGPGTKVDIK
As for B12, in experiment [3], the “ID1 Taqman IC50” value stood at 58 nM and the “pSmad1 Western IC50 nM” value is 17 nM.
